# Measured values published in patent US20220389119A1.
# Target: WT Fc chain lacking a warhead
# Experiment: co-expression in HEK 293 EBNA1, protein A purification, non-reduced micro-capillary gel electrophoresis; 50 kDa = Fc homodimer lacking warheads
substance,measurement,value
WT Fc chain lacking a warhead,NR-mCE 50 kDa (%),21.4%
